Test system: Escherichia coli TOP10
Assay: shrunken log2 fold change of peptide-encoding DNA abundance (4.5 h post-induction vs induction); higher = less antimicrobial activity (less host growth inhibition)
Settings: time post-induction: 4.5 h; library: site-saturation at positions 5, 18, 19, 20
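Further: peptides expressed intracellularly from a pBAD plasmid library in pooled LB shake-flask culture, induced with 0.3% L-arabinose, DNA abundance read by NGS, three biological replicates, DESeq2 with apeglm shrinkage.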

RRIRHRPPRLPRPRPRPSGKPRP
shrunken log2 fold change: -0.0266

RRIRHRPPRLPRPRPRPSGTPRP
shrunken log2 fold change: -0.0258

RRIRHRPPRLPRPRPRPSHHPRP
shrunken log2 fold change: -0.267

RRIRHRPPRLPRPRPRPSHPPRP
shrunken log2 fold change: 0.0558

RRIRHRPPRLPRPRPRPSKAPRP
shrunken log2 fold change: -0.463

RRIRHRPPRLPRPRPRPSKDPRP
shrunken log2 fold change: -0.293

RRIRHRPPRLPRPRPRPSKWPRP
shrunken log2 fold change: -0.452

RRIRHRPPRLPRPRPRPSLKPRP
shrunken log2 fold change: -0.488

RRIRHRPPRLPRPRPRPSLRPRP
shrunken log2 fold change: -0.244

RRIRHRPPRLPRPRPRPSNRPRP
shrunken log2 fold change: -0.771

RRIRHRPPRLPRPRPRPSNYPRP
shrunken log2 fold change: -0.28

RRIRHRPPRLPRPRPRPSQMPRP
shrunken log2 fold change: 0.0205

RRIRHRPPRLPRPRPRPSRGPRP
shrunken log2 fold change: -0.0716

RRIRHRPPRLPRPRPRPSSAPRP
shrunken log2 fold change: -0.0336

RRIRHRPPRLPRPRPRPSSEPRP
shrunken log2 fold change: -0.102

RRIRHRPPRLPRPRPRPSTIPRP
shrunken log2 fold change: -0.0522

RRIRHRPPRLPRPRPRPSTRPRP
shrunken log2 fold change: 0.0896

RRIRHRPPRLPRPRPRPSVFPRP
shrunken log2 fold change: -0.424

RRIRHRPPRLPRPRPRPSWDPRP
shrunken log2 fold change: -0.205

RRIRHRPPRLPRPRPRPSWHPRP
shrunken log2 fold change: -0.759

RRIRHRPPRLPRPRPRPSWMPRP
shrunken log2 fold change: -0.419

RRIRHRPPRLPRPRPRPSWQPRP
shrunken log2 fold change: 0.0601

RRIRHRPPRLPRPRPRPTAVPRP
shrunken log2 fold change: -0.295

RRIRHRPPRLPRPRPRPTCWPRP
shrunken log2 fold change: -0.0322

RRIRHRPPRLPRPRPRPTESPRP
shrunken log2 fold change: 0.0139

RRIRHRPPRLPRPRPRPTHKPRP
shrunken log2 fold change: 0.0457

RRIRHRPPRLPRPRPRPTHWPRP
shrunken log2 fold change: 0.706

RRIRHRPPRLPRPRPRPTLKPRP
shrunken log2 fold change: 1.82

RRIRHRPPRLPRPRPRPTLWPRP
shrunken log2 fold change: 0.246

RRIRHRPPRLPRPRPRPTMEPRP
shrunken log2 fold change: -0.0987

RRIRHRPPRLPRPRPRPTNHPRP
shrunken log2 fold change: -0.457

RRIRHRPPRLPRPRPRPTQHPRP
shrunken log2 fold change: -0.0131

RRIRHRPPRLPRPRPRPTRHPRP
shrunken log2 fold change: 0.36

RRIRHRPPRLPRPRPRPTRLPRP
shrunken log2 fold change: 0.189

RRIRHRPPRLPRPRPRPTRMPRP
shrunken log2 fold change: 0.237

RRIRHRPPRLPRPRPRPTRRPRP
shrunken log2 fold change: 0.271

RRIRHRPPRLPRPRPRPTSQPRP
shrunken log2 fold change: -0.00232

RRIRHRPPRLPRPRPRPTTRPRP
shrunken log2 fold change: 0.383

RRIRHRPPRLPRPRPRPTTTPRP
shrunken log2 fold change: -0.0186

RRIRHRPPRLPRPRPRPTVLPRP
shrunken log2 fold change: -0.109

RRIRHRPPRLPRPRPRPTVNPRP
shrunken log2 fold change: -0.144

RRIRHRPPRLPRPRPRPTVYPRP
shrunken log2 fold change: -0.219

RRIRHRPPRLPRPRPRPTWEPRP
shrunken log2 fold change: 0.0143

RRIRHRPPRLPRPRPRPTWGPRP
shrunken log2 fold change: 0.0618

RRIRHRPPRLPRPRPRPTWKPRP
shrunken log2 fold change: -0.011

RRIRHRPPRLPRPRPRPTYMPRP
shrunken log2 fold change: -0.435

RRIRHRPPRLPRPRPRPVAHPRP
shrunken log2 fold change: -0.00816

RRIRHRPPRLPRPRPRPVCNPRP
shrunken log2 fold change: -0.761

RRIRHRPPRLPRPRPRPVEFPRP
shrunken log2 fold change: -0.178

RRIRHRPPRLPRPRPRPVEMPRP
shrunken log2 fold change: -0.0679

RRIRHRPPRLPRPRPRPVFGPRP
shrunken log2 fold change: 0.0859

RRIRHRPPRLPRPRPRPVFQPRP
shrunken log2 fold change: -0.0932

RRIRHRPPRLPRPRPRPVGYPRP
shrunken log2 fold change: 0.00996

RRIRHRPPRLPRPRPRPVHSPRP
shrunken log2 fold change: 0.0246

RRIRHRPPRLPRPRPRPVIFPRP
shrunken log2 fold change: -0.395

RRIRHRPPRLPRPRPRPVKQPRP
shrunken log2 fold change: -0.0982

RRIRHRPPRLPRPRPRPVKRPRP
shrunken log2 fold change: -0.226

RRIRHRPPRLPRPRPRPVKYPRP
shrunken log2 fold change: -0.0563

RRIRHRPPRLPRPRPRPVLGPRP
shrunken log2 fold change: 0.463

RRIRHRPPRLPRPRPRPVLSPRP
shrunken log2 fold change: -0.386

— the supplement of paper PMC9112550, “Optimization of the antimicrobial peptide Bac7 by deep mutational scanning” (BMC Biology, 2022)
